Assay results taken from patent publication US20110311555A1.

Target: endogenous AP-1 (activator protein 1) in 293 cells, activated by MEKK1
Test: cell-based or functional assay
Settings: scale: normalized promoter activity

Tcl1 R52H (pCMV5-TCL1 R52H construct) (from UniProt P56279 1-114)
AP-1 dependent transactivation (pAP-1-Luc reporter, MEKK1-activated, 293 cells), normalized promoter activity: 176
